Results: patent US20100285597

Assays:
[1] = target: T1, T310A point mutant of nectin-1
T1 chain: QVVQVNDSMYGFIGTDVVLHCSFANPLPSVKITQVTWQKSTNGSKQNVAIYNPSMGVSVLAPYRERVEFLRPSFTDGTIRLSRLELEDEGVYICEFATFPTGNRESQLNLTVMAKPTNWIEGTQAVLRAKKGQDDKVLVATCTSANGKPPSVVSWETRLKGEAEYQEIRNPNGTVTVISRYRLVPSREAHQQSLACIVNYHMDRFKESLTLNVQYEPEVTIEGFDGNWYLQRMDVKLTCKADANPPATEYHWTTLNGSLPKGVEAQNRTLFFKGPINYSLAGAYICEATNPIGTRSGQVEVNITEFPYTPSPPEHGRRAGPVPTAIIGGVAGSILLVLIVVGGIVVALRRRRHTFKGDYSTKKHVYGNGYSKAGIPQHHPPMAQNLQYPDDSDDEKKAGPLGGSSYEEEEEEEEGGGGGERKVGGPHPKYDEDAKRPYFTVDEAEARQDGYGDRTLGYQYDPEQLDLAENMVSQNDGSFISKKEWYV

[2] = target: T2, S323A point mutant of nectin-1
T2 chain: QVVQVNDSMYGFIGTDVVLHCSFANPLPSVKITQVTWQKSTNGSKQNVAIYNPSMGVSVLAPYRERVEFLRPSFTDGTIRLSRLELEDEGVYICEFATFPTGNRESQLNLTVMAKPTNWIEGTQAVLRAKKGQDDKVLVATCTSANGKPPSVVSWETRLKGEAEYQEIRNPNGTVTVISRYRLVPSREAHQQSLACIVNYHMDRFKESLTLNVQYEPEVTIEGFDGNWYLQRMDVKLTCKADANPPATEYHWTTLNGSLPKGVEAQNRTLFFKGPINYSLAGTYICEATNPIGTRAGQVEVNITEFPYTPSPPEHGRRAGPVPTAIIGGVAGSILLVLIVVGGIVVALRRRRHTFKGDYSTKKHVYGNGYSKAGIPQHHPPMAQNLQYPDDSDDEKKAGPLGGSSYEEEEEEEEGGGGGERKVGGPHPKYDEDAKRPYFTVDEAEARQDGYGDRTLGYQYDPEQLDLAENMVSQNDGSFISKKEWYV

[3] = target: T3, Y311A point mutant of nectin-1
T3 chain: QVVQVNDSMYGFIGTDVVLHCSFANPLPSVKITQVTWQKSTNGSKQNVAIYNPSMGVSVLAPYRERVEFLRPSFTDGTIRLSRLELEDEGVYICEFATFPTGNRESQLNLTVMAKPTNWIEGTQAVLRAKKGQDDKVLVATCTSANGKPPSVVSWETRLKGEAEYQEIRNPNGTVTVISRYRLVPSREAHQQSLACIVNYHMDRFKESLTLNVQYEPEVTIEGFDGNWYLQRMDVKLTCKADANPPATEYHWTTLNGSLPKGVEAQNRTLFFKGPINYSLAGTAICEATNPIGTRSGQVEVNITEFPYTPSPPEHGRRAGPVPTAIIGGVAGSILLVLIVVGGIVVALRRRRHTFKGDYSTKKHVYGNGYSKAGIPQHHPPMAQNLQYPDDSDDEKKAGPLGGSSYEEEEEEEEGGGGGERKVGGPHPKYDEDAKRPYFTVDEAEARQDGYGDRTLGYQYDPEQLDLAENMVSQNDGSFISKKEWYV

B1: BACE1 (protein)
chain: ETDEEPEEPGRRGSFVEMVDNLRGKSGQGYYVEMTVGSPPQTLNILVDTGSSNFAVGAAPHPFLHRYYQRQLSSTYRDLRKGVYVPYTQGKWEGELGTDLVSIPHGPNVTVRANIAAITESDKFFINGSNWEGILGLAYAEIARPDDSLEPFFDSLVKQTHVPNLFSLQLCGAGFPLNQSEVLASVGGSMIIGGIDHSLYTGSLWYTPIRREWYYEVIIVRVEINGQDLKMDCKEYNYDKSIVDSGTTNLRLPKKVFEAAVKSIKAASSTEKFPDGFWLGEQLVCWQAGTTPWNIFPVISLYLMGEVTNQSFRITILPQQYLRPVEDVATSQDDCYKFAISQSSTGTVMGAVIMEGFYVVFDRARKRIGFAVSACHVHDEFRTAAVEGPFVTLDMEDCGYNIPQTDESTLMTIAYVMAAICALFMLPLCLMVCQWRCLRCLRQQHDDFADDISLLK
- production of CTF bands (Western blot of HEK 293 lysates) [1]: somewhat less effectively increased production in the other two mutants, T310A and Y311A
- production of CTF bands (Western blot of HEK 293 lysates) [2]: Co-expression with BACE1 substantially increased production of CTF bands for the nectin-1 polypeptide mutant S323A
- production of CTF bands (Western blot of HEK 293 lysates) [3]: somewhat less effectively increased production in the other two mutants, T310A and Y311A
